Test results from publication PMC7617670.

Target: PabA variant aY127A (Escherichia coli) (UniProt P00903)
Assay: ITC; 250 μM PabB titrated into 25 μM PabA in the cell; 25 °C; 50 mM Tris/HCl pH 7.5, 50 mM KCl, 5 mM MgCl2; without Cho and Gln; one set of sites

“PabB, synthase subunit of aminodeoxychorismate synthase (ADCS) from Escherichia coli, wild type (from UniProt P05041 1-453) (enzyme)” was tested, and the Kd was greater than 8 µM.
